Assay results as given in patent publication US20250382362A1 (UNIVERSIT TSKLINIKUM REGENSBURG, published 2025).

Legend:
[1] = target: T1, IL3 peptide, amino acids 28-48 (mature) / 47-67 (native) (human); assay: ELISA on coated linear IL3 peptide
T1 construct: Peptide in which amino acids 22-27 are deleted
T1 peptide: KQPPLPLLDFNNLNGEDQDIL
Experimental: (§1) Peptides were coated overnight in PBS in Nunclon 96 Flat Bottom Transparent Polystyrol plates (Thermo Fisher) at a concentration of 10 μg/ml (60 μl/well). Then […] were washed three times with wash buffer (0.05% Tween 20 in PBS), followed by blocking for 2 hours at room temperature with 1% BSA/PBS. After another washing step with wash buffer, antibody GRT002-H16L2 was added (60 μl of a 10 μg/ml solution in 1% BSA/PBS) and incubated for 1 hour at room temperature. 1% BSA/PBS served as a control. After another washing step, GRT002-H16L2 was incubated with a secondary antibody (HRP-conjugated AffinePure fragment goat anti-human IgG; Jackson Immuno Research) for 1 hour at room temperature. After a final washing step, 100 μl of ABTS (2,2′-azino-bis(3-ethylbenzothiazoline-6-sulfonic acid) was added to each well. Absorption was measured in a infinite 200Pro reader (Tecan) at 405 nm.

[2] = target: T2, IL3 peptide, amino acids 22-48 (mature) / 41-67 (native) (human); assay: ELISA on coated linear IL3 peptide
T2 construct: Linear peptide derived from human IL3, coated on the plate
T2 peptide: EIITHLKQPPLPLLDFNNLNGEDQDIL
Experimental: as §1

[3] = target: T3, IL3 peptide, amino acids 26-48 (mature) / 45-67 (native) (human); assay: ELISA on coated linear IL3 peptide
T3 construct: Peptide in which amino acids 22-25 are deleted
T3 peptide: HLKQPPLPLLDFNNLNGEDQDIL
Experimental: as §1

human IL3 = target: T4, human IL3 (human, UniProt P08700 20-152); assay: cell-based or functional assay
T4 sequence: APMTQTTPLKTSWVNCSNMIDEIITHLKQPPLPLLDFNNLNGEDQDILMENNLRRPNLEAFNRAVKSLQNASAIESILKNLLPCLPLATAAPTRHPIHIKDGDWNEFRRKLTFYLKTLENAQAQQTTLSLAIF

- binding result [1]: binds
- binding result [2]: binds
- binding result [3]: binds
- Inhibitory activity (block of IL-3 induced downregulation of CD131 on primary human basophils; chimeric P8C11 normalized to 100%) (human IL3): 100%
B1: GRT002-H16L2 (antibody, human IgG1, kappa, V domains shown)
VH: QVQLVQSGAEVKKPGASVKVSCKGSGFTFTDYALHWVRQAPGQRLEWMGLISTYYGDTTYNQRFKGRVTMTVDKSTSTAYMELSSLRSEDTAVYYCVITTVAGTDAMDYWGQGTLVTVSS
VL: DIQMTQSPSSLSASVGDRVTITCHASQNINVWLSWYQQKPGKAPKLLIYKASNLHTGVPSRFSGSGSGTDFTFTISSLQPEDIATYYCQQGYSYPYTFGGGTKLEIKR
notes: IgG1 of the G1m3 (heavy chain) and KM3 (light chain) allotype, lacks the C-terminal lysine; also called HC16 × LC2; humanized derivative of antibody P8C11
